Assay results taken from patent publication US6555347 (University of California, dated 2003).

Biological target: T1, lexA-bicoid (UniProt P09081 2-160)
T1 construct: also called nonspecific bait; not shown: LexA part of the two-hybrid bait
T1 sequence (looked up): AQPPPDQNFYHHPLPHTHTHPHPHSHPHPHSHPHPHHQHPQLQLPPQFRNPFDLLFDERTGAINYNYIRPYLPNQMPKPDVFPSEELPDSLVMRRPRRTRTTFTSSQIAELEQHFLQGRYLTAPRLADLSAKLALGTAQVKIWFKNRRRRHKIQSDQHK
Experiment: yeast two-hybrid (interaction trap), retransformation with control bait
From the text: The human minor vault protein p193 amino acid sequence and the nucleotide sequence encoding human minor vault protein p193 were elucidated as follows. First, human vault protein p193 was cloned using an interaction trap, two-hybrid system according to techniques known to those with skill in the art. See, for example, Golemis, et al., *Current Protocols in Mol. Biol.* 20.1.1–20.35 John Willey & Sons, 1997, incorporated by reference in its entirety. In summary, rat major vault protein, GenBank accession number U09870, having the 67 amino acids at the amino-terminal truncated was used as bait against a HeLa acid fusion cDNA library obtained from Roger Brent, Boston, Mass., USA to search for proteins that interacted with rat major vault protein. The interacting proteins were identified by their ability to give rise to blue colonies on media containing galactose and X-gal, a color indicator substrate. The specificity of the interaction between the identified proteins and the rat major vault protein was verified by retransformation of the identified proteins with specific, rat major vault protein and nonspecific (lexA-bicoid) bait cDNAs. This technique identified the cDNA encoding the 193 kDa minor vault protein, SEQ ID NO: 1, by its interaction with the rat major vault protein.

B1: human minor vault protein p193 (other)
chain: VCTQHWQDAVPWTELLSLQTEDGFWKLTPELGLILNLNTNGLHSFLKQKGIQSLGVKGRECLLDLIATMLVLQFIRTRLEKEGIVFKSLMKMDDPSISRNIPWAFEAIKQASEWVRRTEGQYPSICPRLELGNDWDSATKQLLGLQPISTVSPLHRVLHYSQG
notes: In the two-hybrid screen, p193 was a clone from a HeLa acid fusion cDNA library; In the western blots, immunofluorescence and immunoprecipitation, the form of p193 is not described; also called 193 kDa minor vault protein; human vault protein p193
**Q.** Does B1 bind?
**A.** Result: no binding
